According to patent US20260035426:

Biological target: SB1902-C2
Sequence (chain, as listed by the source, chain 1 of 2): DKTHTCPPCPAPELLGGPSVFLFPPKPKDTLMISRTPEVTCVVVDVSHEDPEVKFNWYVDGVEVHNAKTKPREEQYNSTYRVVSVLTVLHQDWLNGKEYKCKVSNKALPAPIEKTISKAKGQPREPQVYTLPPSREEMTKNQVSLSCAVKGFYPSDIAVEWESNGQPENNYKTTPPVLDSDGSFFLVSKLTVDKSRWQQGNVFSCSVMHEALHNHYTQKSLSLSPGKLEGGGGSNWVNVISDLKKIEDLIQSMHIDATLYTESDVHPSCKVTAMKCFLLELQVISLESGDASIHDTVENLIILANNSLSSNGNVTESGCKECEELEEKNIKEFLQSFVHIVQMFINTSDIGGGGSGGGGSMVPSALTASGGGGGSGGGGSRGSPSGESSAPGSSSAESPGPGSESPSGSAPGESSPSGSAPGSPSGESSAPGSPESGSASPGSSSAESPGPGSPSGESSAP
Sequence (chain, as listed by the source, chain 2 of 2): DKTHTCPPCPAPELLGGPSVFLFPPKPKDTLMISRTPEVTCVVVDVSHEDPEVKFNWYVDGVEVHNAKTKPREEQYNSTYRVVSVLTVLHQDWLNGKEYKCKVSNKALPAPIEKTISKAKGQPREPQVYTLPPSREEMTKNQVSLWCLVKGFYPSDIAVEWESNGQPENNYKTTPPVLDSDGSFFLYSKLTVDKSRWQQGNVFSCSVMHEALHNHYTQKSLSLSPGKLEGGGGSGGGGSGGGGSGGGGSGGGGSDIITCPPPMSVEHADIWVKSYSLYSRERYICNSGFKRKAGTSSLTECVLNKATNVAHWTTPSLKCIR

B1: recombinant human MMP2 (protein)
chain: YNFFPRKPKWDKNQITYRIIGYTPDLDPETVDDAFARAFQVWSDVTPLRFSRIHDGEADIMINFGRWEHGDGYPFDGKDGLLAHAFAPGTGVGGDSHFDDDELWTLGEGQVVRVKYGNADGEYCKFPFLFNGKEYNSCTDTGRSDGFLWCSTTYNFEKDGKYGFCPHEALFTMGGNAEGQPCKFPFRFQGTSYDSCTTEGRTDGYRWCGTTEDYDRDKKYGFCPETAMSTVGGNSEGAPCVFPFTFLGNKYESCTSAGRSDGKMWCATTANYDDDRKWGFCPDQGYSLFLVAAHEFGHAMGLEHSQDPGALMAPIYTYTKNFRLSQDDIKGIQELYGASPDIDLGTGPTPTLGPVTPEICKQDIVFDGIAQIRGEIFFFKDRFIWRTVTPRDKPMGPLLVATFWPELPEKIDAVYEAPQEEKAVFFAGNEYWIYSASTLERGYPKPLTSLGLPPDVQRVDAAFNWSKNKKTYIFAGDKFWRYNEVKKKMDPGFPKLIADAWNAIPDNLDAVVDLQGGGHSYFFKGAYYLKLENQSLKSVKFGSIKSDWLGC
  digestion efficiency by SDS-PAGE: about 90% of the prodrug SB1902-C2 was digested
